The record followed here is US6689362.

For test [1], the target named is CD7 antigen (human) (UniProt P09564). The experiment in a line: indirect immunofluorescence with FITC goat anti-mouse IgG on MOLT-3 cells, 10 µg/mL (50 nM) TXU-PAP.
Test [2] shares this target. The experiment in a line: cell-based or functional assay.
Test [3] shares this target. The experiment in a line: indirect immunofluorescence, flow cytometry on Jurkat cells. Background: Flow cytometry measures light scatter and fluorescence of single cells or particles in a stream.
Test [4] has the same target. Put plainly: indirect immunofluorescence, flow cytometry on MOLT-3 cells.

Chain of TXU-7-PAP immunotoxin (P10297 23-285): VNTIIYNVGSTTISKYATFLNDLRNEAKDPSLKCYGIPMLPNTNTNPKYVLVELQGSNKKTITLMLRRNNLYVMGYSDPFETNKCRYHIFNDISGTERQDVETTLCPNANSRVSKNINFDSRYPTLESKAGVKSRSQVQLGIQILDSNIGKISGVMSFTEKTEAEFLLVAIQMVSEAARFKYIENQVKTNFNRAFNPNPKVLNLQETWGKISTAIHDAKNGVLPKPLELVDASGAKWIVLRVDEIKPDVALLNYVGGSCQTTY

Consider “TXU-7-PAP immunotoxin (from UniProt P10297 23-285)”, for which the percent of cells positive for cell-surface bound immunotoxin with CD7 antigen (human) [1] stood at 98%. This substance gave a log kill of clonogenic MOLT-3 blasts, serial dilution clonogenic assay, at 1 µg/mL (=5 nM) with CD7 antigen (human) [2] of 2.8 to 3.7 logs.
monoclonal antibody TXU-7: the percent of cells stained with CD7 antigen (human) [3] came out at 96%; with CD7 antigen (human) [4] it was 99%.
